Entries after “also recorded” stand apart in the source; their conditions may differ.
How the values were obtained:
[1] = tested on: human differentiated embryonic (DE) cells; assay: RT-PCR of cell specific genes in DE cells treated with growth factors; type: cell-based; conditions: for overall induction or repression of cell specific expression (FIG. 3B): at least three experiments
Method: (§1) Cell Culture: Human embryonic stem cells were grown on a feeder layer of mouse embryonic fibroblasts (MEF) and then transferred to gelatin coated plates and cultured further to reduce the number of murine cells in the culture. Differentiation into embryoid bodies (EBs) was initiated by transfer to Petri dishes, where the embryoid bodies remained in suspension. After 5 days, the EBs become dissociated and cells are cultured as a monolayer forming differentiated embryonic (DE) cells. This protocol allows for initial differentiation of the human embryonic stem cells as aggregates and further differentiation as a monolayer wherein cells can be exposed to exogenous growth factors. The DE cells were cultured for 10 days in the presence of 8 different growth factors: NGF, bFGF, Activin-A, TGFβ1, HGF, EGF, BMP4 and retinoic acid (RA) (FIG. 1A).
To induce formation of EBs, ES cells were transferred using trypsin/EDTA (0.1%/l mM) to plastic Petri dishes to allow their aggregation and prevent adherence to the plate. Human EBs were grown in the same culture medium, except that it lacked leukemia inhibitory factor (LIF) and bFGF. The EBs were cultured for 5 days and then dissociated and plated on tissue culture plates coated with 50 μg/ml Fibronectin (Boehringer Mannheim). The cells were grown in the presence of the following human recombinant growth factors used singly or in groups: Basic Fibroblast Growth Factor (bFGF) (Swoboda et al, 1999)—10 ng/ml (Gibco BRL); Transforming Growth Factor Beta 1 (TGFβ1) (Swoboda et al, 1999)—2 ng/ml (R&D Systems); Activin-A (Slager et al, 1993)—20 ng/ml (R&D Systems); Bone Morphogenic Protein 4 (BMP-4) (Slager et al, 1993; Bain et al, 1996)—10 ng/ml (R&D Systems); Hepatocyte Growth Factor (HGF)/Scatter Factor (Doetsch et al, 1999)—20 ng/ml (R&D Systems); Epidermal Growth Factor (EGF) (Doetsch et al, 1999)—100 ng/ml (R&D Systems); βNerve Growth Factor (NGF) (Johansson et al, 1999)—100 ng/ml (R&D Systems); Retinoic acid (RA) (Deacon et al, 1998; Peschanski et al, 1995)—1 μM (Sigma). Under these conditions the differentiated embryonic (DE) cells were grown for another 10 days. All of the examined growth factors are absent from the KnockOut™ serum replacement in which the embryonic cells were cultured.
RT-PCR Analysis: Total RNA was extracted using Atlas™ Pure Total RNA Kit (Clontech). cDNA was synthesized from 1 μg total RNA, using Atlas™ RT-for-PCR Kit (Clontech). cDNA samples were subjected to PCR amplification with DNA primers selective for the human genes. For each gene, the DNA primers were derived from different exons to ensure that the PCR product represents the specific mRNA species and not genomic DNA. PCR was performed using the Clontech Advantaq+™ RT-PCR kit and using a two-step cycle at 68° C.
Primers were synthesized for the following genes: neurofilament heavy chain (NF-H), phosphoprotein enriched in astrocytes (PEA-15), Keratin, Dopamine β Hydroxylase (DβH), Follicular Stimulating Hormone (FSH), Enolase, Myosin light polypeptide2 (myosin), Cartilage Matrix Protein (CMP), Renin, Kallikrein, Wilms Tumor 1 (WTI), β-Globin (β-Glob), δ-Globin (δ-Glob), Cardiac Actin (cACT), Albumin, α1 anti-trypsin (α1 AT), Lipase, Amylase, PDX-1, Insulin, Glucagon, Surfactant, Parathyroid Hormone (PTH), α-feto protein (αFP), Retinoic Acid Receptor type alpha (RAR), Hepatocyte Growth Factor Receptor (c-Met), Nerve Growth Factor Receptor (NGFR), Fibroblast Growth Factor Receptor type I (FGFRI), Transforming Growth Factor Receptor type II (TGFRII), Epidermal Growth Factor Receptor type (EGFR), Activin Receptor type IIB (ACTRIIB), Bone Morphogenic Protein 4 Receptor type II (BMP4RII), Octamer Binding Protein 4 (Oct 4), Glyceraldehyde 3-phosphate dehydrogenase (G3PD), β-Actin. Also incorporated by reference, see http://www.ls.huji.ac.il/˜nissimb/factors_es/primers.html-ente.
The differentiation induced by growth factors was further examined by determining the expression of a panel of 24 cell specific genes using RT-PCR. […]

[2] = tested on: human differentiated embryonic (DE) cells; assay: Morphology of DE cells cultured with growth factors; type: cell-based; conditions: several days on plastic, continuous exposure to growth factor (FIG. 1B)
Method: as §1
To induce formation of EBs, ES cells were transferred using trypsin/EDTA (0.1%/l mM) to plastic Petri dishes to allow their aggregation and prevent adherence to the plate. Human EBs were grown in the same culture medium, except that it lacked leukemia inhibitory factor (LIF) and bFGF. The EBs were cultured for 5 days and then dissociated and plated on tissue culture plates coated with 50 μg/ml Fibronectin (Boehringer Mannheim). […]

[3] = vs control without growth factor (FIG. 4)

B1: Activin-A: human recombinant Activin-A, 20 ng/ml (protein, UniProt P08476 311-426, looked up)
Inhibin beta A chain: GLECDGKVNICCKKQFFVSFKDIGWNDWIIAPSGYHANYCEGECPSHIAGTSGSSLSFHSTVINHYRMRGHSPFANLKSCCVPTKLRPMSMLYYDDGQNIIKKDIQNMIVEECGCS
For B1, the “overall induction or repression of cell specific expression (FIG. 3B)” value [1] was “mostly repress or fail to direct differentiation of as many cell types”, the blood formation [1, 3] was “inhibit” and the “differentiation into Mullerian duct cells” value [1, 3] was “inhibit”. The differentiation into chondrocytes [1, 3] was “inhibit”, the “differentiation into ectodermal cells” value [1, 3] was “inhibit” and the “differentiation into endodermal cells” value [1, 3] was “inhibit”. For the same molecule, the “differentiation into kidney cells” value [1, 3] was “inhibit”, the “differentiation into mesodermal cells” value [1, 3] was “allow differentiation into selected mesodermal cells” and the “cell morphology found in treated culture” value [2] was “muscle like syncytiums”.

B2: BMP-4: human recombinant Bone Morphogenic Protein 4, 10 ng/ml (protein, UniProt P12644 293-408, looked up)
Bone morphogenetic protein 4: SPKHHSQRARKKNKNCRRHSLYVDFSDVGWNDWIVAPPGYQAFYCHGDCPFPLADHLNSTNHAIVQTLVNSVNSSIPKACCVPTELSAISMLYLDEYDKVVLKNYQEMVVEGCGCR
In the case of B2, the “overall induction or repression of cell specific expression (FIG. 3B)” value [1] is reported as “mostly repress or fail to direct differentiation of as many cell types”, the blood formation [1, 3] is reported as “reduced” and the differentiation into chondrocytes [1, 3] is reported as “reduced”. For the same molecule, the “differentiation into ectodermal cells” value [1, 3] was “allow or induce”, the “differentiation into mesodermal cells” value [1, 3] was “allow or induce; also recorded: inhibits differentiation of all other mesodermal cells examined” and the “differentiation into skin cells” value [1, 3] was “apparently permitting skin cells to form”. The “cell morphology found in treated culture” value [2] was “large round cells”.
